Assay [1] has as its target T1, soluble His-tagged hepsin comprising the entire extracellular domain of human hepsin (Arg45-Leu417) (human, UniProt P05981 45-417).
T1 construct: range 45-417; also called soluble hepsin; recombinant soluble hepsin; not shown: His tag
In words: enzyme inhibition, 0.5 nM hepsin, chromogenic substrate S2366; apparent Ki (Ki*) from tight-binding fit. How it is done:
(§1) After substrate addition, the linear rates of the increase in absorbance at 405 nm was measured on a kinetic microplate reader (Molecular Devices, Sunnyvale, Calif.).

For assay [2], the target named is T2, matriptase protease domain (UniProt Q9Y5Y6 615-855, limits assumed).
T2 construct: domain: protease domain
T2 sequence (looked up): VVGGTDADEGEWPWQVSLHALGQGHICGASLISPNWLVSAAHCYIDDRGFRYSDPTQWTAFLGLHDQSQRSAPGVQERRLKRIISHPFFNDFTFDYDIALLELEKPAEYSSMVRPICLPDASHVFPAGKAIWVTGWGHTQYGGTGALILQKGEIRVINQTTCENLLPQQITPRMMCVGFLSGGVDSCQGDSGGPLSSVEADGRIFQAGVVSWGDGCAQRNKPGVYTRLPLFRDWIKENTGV
In words: enzyme inhibition, 0.5 nM matriptase, chromogenic substrate S2765; apparent Ki (Ki*) from tight-binding fit. On the procedure:
as §1

T1 sequence (P05981 45-417 limits assumed): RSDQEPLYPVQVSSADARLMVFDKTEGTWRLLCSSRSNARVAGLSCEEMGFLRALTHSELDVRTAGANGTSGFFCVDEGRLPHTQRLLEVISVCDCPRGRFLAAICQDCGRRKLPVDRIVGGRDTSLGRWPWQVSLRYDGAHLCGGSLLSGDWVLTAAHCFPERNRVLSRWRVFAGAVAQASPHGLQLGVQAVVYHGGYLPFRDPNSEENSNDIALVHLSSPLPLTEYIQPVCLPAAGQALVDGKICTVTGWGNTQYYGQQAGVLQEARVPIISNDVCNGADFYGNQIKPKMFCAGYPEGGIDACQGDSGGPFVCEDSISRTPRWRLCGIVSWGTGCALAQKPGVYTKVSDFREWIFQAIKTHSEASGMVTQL

B1: soluble HAI-2 (hepatocyte growth factor activator inhibitor-2) (other, UniProt O43291 28-197, looked up)
chain: ADRERSIHDFCLVSKVVGRCRASMPRWWYNVTDGSCQLFVYGGCDGNSNNYLTKEECLKKCATVTENATGDLATSRNAADSSVPSAPRRQDSEDHSSDMFNYEEYCTANAVTGPCRASFPRWYFDVERNSCNNFIYGGCRGNKNSYRSEEACMLRCFRQQENPPLPLGSK
With B1, the Ki was 260 pM in assay [1] and 850 pM in assay [2].

Values taken from patent US20100061996A1 (Genentech, published 2010).
